Each binder was assayed against T1, HLA-A*02:01 (human) (assay: UV peptide exchange ELISA).
T1 construct: monomers captured on streptavidin plates; also called MHC class I
Method in brief: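 Read-out is an ELISA on the UV-exchange reaction: monomers, diluted 100-fold, are captured on streptavidin and the β2m light chain is detected with 2 μg/ml HRP antibody and TMB at 450 nm.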

Binder | peptide exchange yield [%]
IMEENPGIFAV | 50 to 75
SIQQSIERLLV | 20 to 50
MTLGQIYYL | 50 to 75
QLLHVGVTV | 50 to 75
AILPQLFMV | ≥ 75
YLFEMDSSL | 20 to 50
SLIPNLRNV | 50 to 75
YLQDQHLLLTV | 50 to 75
HLLSELEAAPYL | ≥ 75
SLAALVVHV | 50 to 75
SLSDGLEEV | 20 to 50
ALPVSLPQI | 50 to 75
FMEGAIIYV | 50 to 75
IISDLTIAL | 50 to 75
ALNDQVFEI | 50 to 75
SLEPQIQPV | 20 to 50
ALLDVTHSELTV | 50 to 75
RLYTGMHTV | 50 to 75
ALLQEGEVYSA | 50 to 75
ILLSQTTGV | 50 to 75
FLPEALDFV | 50 to 75
YLFPGIPEL | 50 to 75
YSLSSVVTV | 50 to 75
GLWEIENNPTVKA | ≥ 75
GLFEDVTQPGILL | ≥ 75

Binder | peptide exchange yield [%]
ALLSMTFPL | ≥ 75
GLAPFTEGISFV | 50 to 75
VLDRESPNV | 50 to 75
FLNEFFLNV | 50 to 75
KMFEFVEPLL | ≥ 75
NLINEINGV | 50 to 75
FLVEDLVDSL | 50 to 75
SQYSGQLHEV | 50 to 75
FLYDEIEAEV | 50 to 75
VLLEIEDLQV | ≥ 75
QLALKVEGV | 50 to 75
ILLERLWYV | 50 to 75
YLISELEAA | 50 to 75
VIWKALIHL | 50 to 75
RMIEYFIDV | 50 to 75
SLLEVNEESTV | 50 to 75
GLINTGVLSV | 20 to 50
SQIALNEKLVNL | 50 to 75
VLADIELAQA | 50 to 75
KLLGKLPEL | 50 to 75
FLVDTPLARA | ≥ 75
ILLTAIVQV | 50 to 75
ALVNVQIPL | 50 to 75
VLLDDIFAQL | 50 to 75
FLPDEPYIKV | 50 to 75

Binder | peptide exchange yield [%]
TLTKVLVAL | 50 to 75
VMITKLVEV | 50 to 75
ILLDVKTRL | ≥ 75
LILEGVDTV | 20 to 50
FLPDANSSV | 20 to 50
YLQDVVEQA | 50 to 75
ALIAEGIALV | 50 to 75
VLDELDMEL | 20 to 50
SMHDLVLQV | 50 to 75
SLFKHDPAAWEA | ≥ 75
ALLGQTFSL | 50 to 75
HIYDKVMTV | 50 to 75
SLLELLHIYV | 50 to 75
ALYIGDGYVIHLA | 50 to 75
FLVTLNNVEV | ≥ 75
LLDSKVPSV | 50 to 75
KVDTVWVNV | 50 to 75
SIANFSEFYV | ≥ 75
YLLETSGNL | 50 to 75
VLFDDELLMV | 50 to 75
TLMTSLPAL | 50 to 75
GLFDGVPTTA | 50 to 75
FIMPATVADATAV | 50 to 75

Reference: patent US20170037110A1 (IMMATICS BIOTECHNOLOGIES, published 2017)
